One test concerns the target T1, human NPY5 receptor (human, UniProt Q15761 1-445).
T1 sequence (looked up): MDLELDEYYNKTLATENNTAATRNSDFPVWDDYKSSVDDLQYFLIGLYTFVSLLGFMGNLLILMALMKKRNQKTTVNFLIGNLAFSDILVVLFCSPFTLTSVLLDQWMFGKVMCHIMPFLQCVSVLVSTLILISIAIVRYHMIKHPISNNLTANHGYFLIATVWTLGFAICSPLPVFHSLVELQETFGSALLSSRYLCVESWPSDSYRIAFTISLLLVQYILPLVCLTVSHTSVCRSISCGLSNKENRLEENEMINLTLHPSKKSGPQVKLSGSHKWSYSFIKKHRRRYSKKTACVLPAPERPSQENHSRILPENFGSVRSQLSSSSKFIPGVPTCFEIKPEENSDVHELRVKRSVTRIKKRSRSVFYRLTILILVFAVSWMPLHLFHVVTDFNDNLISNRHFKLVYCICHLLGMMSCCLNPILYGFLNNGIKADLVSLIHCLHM
Briefly: cell-based or functional assay.

For test [1], the target named is T2, human NPY2 receptor (human, UniProt P49146 1-381).
T2 sequence (looked up): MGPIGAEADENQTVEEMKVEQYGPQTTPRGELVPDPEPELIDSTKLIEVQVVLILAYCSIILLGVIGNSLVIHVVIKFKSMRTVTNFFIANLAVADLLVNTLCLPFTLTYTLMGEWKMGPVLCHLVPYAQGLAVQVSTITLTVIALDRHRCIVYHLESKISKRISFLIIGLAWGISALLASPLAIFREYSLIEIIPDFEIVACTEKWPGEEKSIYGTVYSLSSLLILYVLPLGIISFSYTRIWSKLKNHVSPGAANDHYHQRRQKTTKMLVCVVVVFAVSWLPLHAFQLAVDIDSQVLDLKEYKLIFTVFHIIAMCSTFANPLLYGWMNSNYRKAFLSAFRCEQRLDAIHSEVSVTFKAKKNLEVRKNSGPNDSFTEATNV
The experiment in a line: cell-based or functional assay.

Test [2] addresses T2, human NPY2 receptor. Briefly: RLB: displacement of 125I-PYY(1-36) from hNPY2R membranes. In general terms: Loss of bound radioactivity is the signal in a displacement assay; it reports binding, not function.

*1 amine or outer side, *2 acyl side, *3 side chain or, on linkers, in order; H or OH if unused. Side-chain parts run from the residue outwards. The star is where a group is joined. C18 diacid = O=C(O)CCCCCCCCCCCCCCCCC(=O)*; γGlu = O=C(O)[C@H](CCC(=O)[*:2])N[*:1]; Isovaleryl = CC(C)CC(=O)*; Ahx = NCCCCCC(=O)O

By Ki is commonly meant a measure of affinity in units of concentration, obtained from inhibition or displacement. Low readings indicate tighter binding, high ones weaker binding.

B1: Compound 145 (peptide)
peptide: Isovaleryl-APAK([Ahx-γGlu-C18 diacid])PEEDASPEELQRYYVSLRHYYNWLTRQRY-NH2
SMILES: CC(C)CC(=O)N[C@@H](C)C(=O)N1CCC[C@H]1C(=O)N[C@@H](C)C(=O)N[C@@H](CCCCNC(=O)CCCCCNC(=O)CC[C@H](NC(=O)CCCCCCCCCCCCCCCCC(=O)O)C(=O)O)C(=O)N1CCC[C@H]1C(=O)N[C@@H](CCC(=O)O)C(=O)N[C@@H](CCC(=O)O)C(=O)N[C@@H](CC(=O)O)C(=O)N[C@@H](C)C(=O)N[C@@H](CO)C(=O)N1CCC[C@H]1C(=O)N[C@@H](CCC(=O)O)C(=O)N[C@@H](CCC(=O)O)C(=O)N[C@@H](CC(C)C)C(=O)N[C@@H](CCC(N)=O)C(=O)N[C@@H](CCCNC(=N)N)C(=O)N[C@@H](Cc1ccc(O)cc1)C(=O)N[C@@H](Cc1ccc(O)cc1)C(=O)N[C@H](C(=O)N[C@@H](CO)C(=O)N[C@@H](CC(C)C)C(=O)N[C@@H](CCCNC(=N)N)C(=O)N[C@@H](Cc1c[nH]cn1)C(=O)N[C@@H](Cc1ccc(O)cc1)C(=O)N[C@@H](Cc1ccc(O)cc1)C(=O)N[C@@H](CC(N)=O)C(=O)N[C@@H](Cc1c[nH]c2ccccc12)C(=O)N[C@@H](CC(C)C)C(=O)N[C@H](C(=O)N[C@@H](CCCNC(=N)N)C(=O)N[C@@H](CCC(N)=O)C(=O)N[C@@H](CCCNC(=N)N)C(=O)N[C@@H](Cc1ccc(O)cc1)C(N)=O)[C@@H](C)O)C(C)C
On to B1, for which the “EC50, HTRF cAMP Gi assay” value is greater than 5000 nM in the test with human NPY5 receptor and 0.118 nM with human NPY2 receptor [1]. This molecule also showed a Ki with human NPY2 receptor [2] of 5.29 nM.

B2: Compound 146 (peptide)
peptide: Isovaleryl-APEK([Ahx-γGlu-C18 diacid])PEEEATPEELQRYYVSLRHYYNWLTRQRY-NH2
SMILES: CC(C)CC(=O)N[C@@H](C)C(=O)N1CCC[C@H]1C(=O)N[C@@H](CCC(=O)O)C(=O)N[C@@H](CCCCNC(=O)CCCCCNC(=O)CC[C@H](NC(=O)CCCCCCCCCCCCCCCCC(=O)O)C(=O)O)C(=O)N1CCC[C@H]1C(=O)N[C@@H](CCC(=O)O)C(=O)N[C@@H](CCC(=O)O)C(=O)N[C@@H](CCC(=O)O)C(=O)N[C@@H](C)C(=O)N[C@H](C(=O)N1CCC[C@H]1C(=O)N[C@@H](CCC(=O)O)C(=O)N[C@@H](CCC(=O)O)C(=O)N[C@@H](CC(C)C)C(=O)N[C@@H](CCC(N)=O)C(=O)N[C@@H](CCCNC(=N)N)C(=O)N[C@@H](Cc1ccc(O)cc1)C(=O)N[C@@H](Cc1ccc(O)cc1)C(=O)N[C@H](C(=O)N[C@@H](CO)C(=O)N[C@@H](CC(C)C)C(=O)N[C@@H](CCCNC(=N)N)C(=O)N[C@@H](Cc1c[nH]cn1)C(=O)N[C@@H](Cc1ccc(O)cc1)C(=O)N[C@@H](Cc1ccc(O)cc1)C(=O)N[C@@H](CC(N)=O)C(=O)N[C@@H](Cc1c[nH]c2ccccc12)C(=O)N[C@@H](CC(C)C)C(=O)N[C@H](C(=O)N[C@@H](CCCNC(=N)N)C(=O)N[C@@H](CCC(N)=O)C(=O)N[C@@H](CCCNC(=N)N)C(=O)N[C@@H](Cc1ccc(O)cc1)C(N)=O)[C@@H](C)O)C(C)C)[C@@H](C)O
For the molecule B2, the “EC50, HTRF cAMP Gi assay” value with human NPY5 receptor is greater than 5000 nM; with human NPY2 receptor [1] it was 0.13 nM. For the same molecule, the affinity with human NPY2 receptor [2], expressed as Ki, was 8.93 nM.

B3: Compound 147 (peptide)
peptide: Isovaleryl-APEK([Ahx-γGlu-C18 diacid])PEEDASPEEIQRYYVSLRHYYNWLTRQRY-NH2
SMILES: CC[C@H](C)[C@H](NC(=O)[C@H](CCC(=O)O)NC(=O)[C@H](CCC(=O)O)NC(=O)[C@@H]1CCCN1C(=O)[C@H](CO)NC(=O)[C@H](C)NC(=O)[C@H](CC(=O)O)NC(=O)[C@H](CCC(=O)O)NC(=O)[C@H](CCC(=O)O)NC(=O)[C@@H]1CCCN1C(=O)[C@H](CCCCNC(=O)CCCCCNC(=O)CC[C@H](NC(=O)CCCCCCCCCCCCCCCCC(=O)O)C(=O)O)NC(=O)[C@H](CCC(=O)O)NC(=O)[C@@H]1CCCN1C(=O)[C@H](C)NC(=O)CC(C)C)C(=O)N[C@@H](CCC(N)=O)C(=O)N[C@@H](CCCNC(=N)N)C(=O)N[C@@H](Cc1ccc(O)cc1)C(=O)N[C@@H](Cc1ccc(O)cc1)C(=O)N[C@H](C(=O)N[C@@H](CO)C(=O)N[C@@H](CC(C)C)C(=O)N[C@@H](CCCNC(=N)N)C(=O)N[C@@H](Cc1c[nH]cn1)C(=O)N[C@@H](Cc1ccc(O)cc1)C(=O)N[C@@H](Cc1ccc(O)cc1)C(=O)N[C@@H](CC(N)=O)C(=O)N[C@@H](Cc1c[nH]c2ccccc12)C(=O)N[C@@H](CC(C)C)C(=O)N[C@H](C(=O)N[C@@H](CCCNC(=N)N)C(=O)N[C@@H](CCC(N)=O)C(=O)N[C@@H](CCCNC(=N)N)C(=O)N[C@@H](Cc1ccc(O)cc1)C(N)=O)[C@@H](C)O)C(C)C
B3: the “EC50, HTRF cAMP Gi assay” value with human NPY5 receptor was greater than 5000 nM; in the test with human NPY2 receptor [1], 0.146 nM. Moreover, the Ki with human NPY2 receptor [2] was determined as 5.04 nM.

B4: Compound 183 (peptide)
peptide: Isovaleryl-APEK([Ahx-γGlu-C18 diacid])AEEDASPEEIQRYYVSLRHYYNWLTRQRY-NH2
SMILES: CC[C@H](C)[C@H](NC(=O)[C@H](CCC(=O)O)NC(=O)[C@H](CCC(=O)O)NC(=O)[C@@H]1CCCN1C(=O)[C@H](CO)NC(=O)[C@H](C)NC(=O)[C@H](CC(=O)O)NC(=O)[C@H](CCC(=O)O)NC(=O)[C@H](CCC(=O)O)NC(=O)[C@H](C)NC(=O)[C@H](CCCCNC(=O)CCCCCNC(=O)CC[C@H](NC(=O)CCCCCCCCCCCCCCCCC(=O)O)C(=O)O)NC(=O)[C@H](CCC(=O)O)NC(=O)[C@@H]1CCCN1C(=O)[C@H](C)NC(=O)CC(C)C)C(=O)N[C@@H](CCC(N)=O)C(=O)N[C@@H](CCCNC(=N)N)C(=O)N[C@@H](Cc1ccc(O)cc1)C(=O)N[C@@H](Cc1ccc(O)cc1)C(=O)N[C@H](C(=O)N[C@@H](CO)C(=O)N[C@@H](CC(C)C)C(=O)N[C@@H](CCCNC(=N)N)C(=O)N[C@@H](Cc1c[nH]cn1)C(=O)N[C@@H](Cc1ccc(O)cc1)C(=O)N[C@@H](Cc1ccc(O)cc1)C(=O)N[C@@H](CC(N)=O)C(=O)N[C@@H](Cc1c[nH]c2ccccc12)C(=O)N[C@@H](CC(C)C)C(=O)N[C@H](C(=O)N[C@@H](CCCNC(=N)N)C(=O)N[C@@H](CCC(N)=O)C(=O)N[C@@H](CCCNC(=N)N)C(=O)N[C@@H](Cc1ccc(O)cc1)C(N)=O)[C@@H](C)O)C(C)C
Regarding B4, the figures for the “EC50, HTRF cAMP Gi assay” value with human NPY5 receptor and with human NPY2 receptor [1] were greater than 5000 nM and 0.447 nM, respectively. In the test with human NPY2 receptor [2], this molecule registered a Ki of 18.8 nM.

B5: Compound 172 (peptide)
peptide: Isovaleryl-APEK([Ahx-γGlu-C18 diacid])PPEDASPEEIQRYYVSLRHYYNWLTRQRY-NH2
SMILES: CC[C@H](C)[C@H](NC(=O)[C@H](CCC(=O)O)NC(=O)[C@H](CCC(=O)O)NC(=O)[C@@H]1CCCN1C(=O)[C@H](CO)NC(=O)[C@H](C)NC(=O)[C@H](CC(=O)O)NC(=O)[C@H](CCC(=O)O)NC(=O)[C@@H]1CCCN1C(=O)[C@@H]1CCCN1C(=O)[C@H](CCCCNC(=O)CCCCCNC(=O)CC[C@H](NC(=O)CCCCCCCCCCCCCCCCC(=O)O)C(=O)O)NC(=O)[C@H](CCC(=O)O)NC(=O)[C@@H]1CCCN1C(=O)[C@H](C)NC(=O)CC(C)C)C(=O)N[C@@H](CCC(N)=O)C(=O)N[C@@H](CCCNC(=N)N)C(=O)N[C@@H](Cc1ccc(O)cc1)C(=O)N[C@@H](Cc1ccc(O)cc1)C(=O)N[C@H](C(=O)N[C@@H](CO)C(=O)N[C@@H](CC(C)C)C(=O)N[C@@H](CCCNC(=N)N)C(=O)N[C@@H](Cc1c[nH]cn1)C(=O)N[C@@H](Cc1ccc(O)cc1)C(=O)N[C@@H](Cc1ccc(O)cc1)C(=O)N[C@@H](CC(N)=O)C(=O)N[C@@H](Cc1c[nH]c2ccccc12)C(=O)N[C@@H](CC(C)C)C(=O)N[C@H](C(=O)N[C@@H](CCCNC(=N)N)C(=O)N[C@@H](CCC(N)=O)C(=O)N[C@@H](CCCNC(=N)N)C(=O)N[C@@H](Cc1ccc(O)cc1)C(N)=O)[C@@H](C)O)C(C)C
In the case of B5, the figures for the “EC50, HTRF cAMP Gi assay” value with human NPY5 receptor and with human NPY2 receptor [1] were greater than 5000 nM and 0.079 nM, respectively. The same molecule came in with a Ki in the test with human NPY2 receptor [2] of 0.81 nM.

The record behind these values is patent publication US20260015399A1 (Boehringer Ingelheim, published 2026).
